In patent publication US6120991:

Tests used:
[1] = target: integrin α3 β1 (human) (UniProt P26006)
[2] = target: integrin α6 β4 (human) (UniProt P23229)

- % adherent HFF control cells on epiligrin-ECM^t at 37° C. (time course) (% adherent cells) [1]: 57
- % adherent 51Cr-labeled HFK cells on epiligrin-ECM^t at 4° C. (time course) (% adherent cells) [2]: 28
Substance: epiligrin-ECM^t (epiligrin left on the substratum after HFK were detached from their ECM with trypsin) (ligand)
